Reference: article PMC6901390, “Cell-Free Enzymatic Conversion of Spent Coffee Grounds Into the Platform Chemical Lactic Acid” (Frontiers in Bioengineering and Biotechnology, 2019)

Experiments:
Assay in all cases: purified protein
purified protein [1] = substrate: CC(=O)C(=O)O; assay type: biochemical, Geobacillus stearothermophilus; conditions: 0.2 mM NADH, 20 mM sodium phosphate pH 7.0, 50 °C, 0-50 mM pyruvate
purified protein [2] = substrate: CC(=O)C(=O)O; assay type: biochemical, Thermoplasma acidophilum; conditions: pyruvate and D-glyceraldehyde varied together (0.5-40 mM), one combined Km, 20 mM sodium phosphate pH 7.0, 50 °C
purified protein [3] = substrate: O=C[C@H](O)CO; conditions: pyruvate and D-glyceraldehyde varied together (0.5-40 mM), one combined Km, 20 mM sodium phosphate pH 7.0, 50 °C

Row | Protein | Km (purified protein [1]) | Vmax (purified protein [1]) | kcat (purified protein [1]) | kcat/Km (purified protein [1]) | Km (purified protein [2]) | Vmax (purified protein [2]) | kcat (purified protein [2]) | kcat/Km (purified protein [2]) | Km (purified protein [3]) | Vmax (purified protein [3]) | kcat (purified protein [3]) | kcat/Km (purified protein [3])
1 | LDH (Geobacillus stearothermophilus) (protein, synthetic gene, His-tagged, pETDuet-1, expressed in E. coli BL21 (DE3), Ni-NTA purified) MKNNGGARVVVIGAGFVGASYVFALMNQGIADEIVLIDANESKAIGDAMDFNHGKVFAPKPVDIWHGDYDDCRDADLVVICAGANQKPGETRLDLVDKNIAIFRSIVESVMASGFQGLFLVATNPVDILTYATWKFSGLPHERVIGSGTILDTARFRFLLGEYFSVAPQNVHAYIIGEHGDTELPVWSQAYIGVMPIRKLVESKGEEAQKDLERIFVNVRDAAYQIIEKKGATYYGIAMGLARVTRAILHNENAILTVSAYLDGLYGERDVYIGVPAVINRNGIREVIEIELNDDEKNRFHHSAATLKSVLARAFTR | 10.95 ± 1.67 mM | 194 µmol/min/mg | 117 s⁻¹ | 10600 M⁻¹ s⁻¹ | – | – | – | – | – | – | – | –
2 | KDGA (Thermoplasma acidophilum DSM 1728) (protein, His-tagged, pProEX HTc, expressed in E. coli BL21-CodonPlus (DE3)-RIL, Ni-NTA purified) MYKGIVTPMITPMGQNGEIDYRATEILIDNLADFGVDGLFPMGSTGLFPMFSTDEKKKFLGFVRDHSKKIEVYAGVGSSSTQESVELSKYTEDIGIKVRVLMPTYYIKPDEDWMYRHFSTVISAASNDLFIYNIPQLSGSWISESLIEKLTREFSNVKGIKDSSGDMRFFSRIIRHKNEKFDIFQGQDDLLFLSLSIGASGGVCGLSNISPYITNLYHEFSAGNLEKARKIQIDEVNPLMYAINEATFPAGYYYAFYKMNGIKGGYRAPMVEPTTDQKKKIDQELTKIPKKQ | – | – | – | – | 8.07 ± 1.29 mM | 17 µmol/min/mg | 10.5 s⁻¹ | 1300 M⁻¹ s⁻¹ | 8.07 ± 1.29 mM | 17 µmol/min/mg | 10.5 s⁻¹ | 1300 M⁻¹ s⁻¹
